# Measurements published in the DeepSol protein solubility set.
# Test: soluble on expression in E. coli; label from the status in PepcDB or PDB records
row,Sequence,soluble on expression in E. coli
1,MGLTVEAADEKGLTLRLPYSQAIIGNPESGVVHGGAITTLMDTTCGISTVCVLPDFEICPTLDLRIDYMHPAEPHKDVYGFAECYRVTPNVIFTRGFAYQDDPGQPIAHVVGAFMRMGLEHHHHHH,not soluble
2,MHRNYFKKKQNLIFSEKQQSVEKYGDDWVHHFHTANARETFGKKIFGIFFPRNLSIERTRETPTAKEGDLLHNGNY,not soluble
3,MSDEAIHDIFVIGGGINGCGIARDAVGRGYSVALAEMNDFASGTSSAATKLIHGGLRYLEHYEFRLVREALMEREVLWAMAPHIIWPMRFVLPFQKGGVRPAWLVRLGLFLYDHLGGRKLLPATRSLDLRRDPAGKPLKPIFARAFEYSDGWVDDARLVVLNARDAADRGAVILNRTQVVSARREGAFWRVETKNAAGESKTYRARMLVNAAGPWVDKVLAATFGKNNVHNVRLVQGSHIIVRKKFADPRAYFFQNPDGRIIFAIPYEQDFTLIGTTDRDYTADPRAVKISDEEISYLCNAASEYFAEPVKPADIVWTYSGVRPLFDDGASKAQEATRDYVLKTEGAEGEAPLLNIFGGKLTTYRRLAEHALEKIGDALGEKGTPWTAGSHLPGGNFGAEAYAEEVKALRSRYPFLDRRHAERLVRCYGTDAVAIIGAAADTTALGRHFGGTLYEAEVRWLMAREWALTAEDILWRRTKQGLFLTPEEVLGLTDYIDDIAGGRLKAILEHHHHHH,soluble
4,PSTAAWFNAREQAKLVDLYDSKIENATPLSAEQLLELAHRYNDRLTVGAALDPWANVPRGAGKEDGDGMAYKDQLRVDRTDVMARIRIPSIKVDLPIYHGTSDNTLKKGAGHLEGTSLPVGGPRTHSVITAHRGLAEATMFTNLNKVGVGDRFTIEVMGEVLTYEVRETRVVSPEDTRFLQTQDDRDLVTLVTCTPLGINTHRILVTAERITPTPQSDIDAARQASQIGFP,not soluble
5,MNNIRQLTKDEYPKAIELSWQVFTITGKEDFNNEGLEFFKSFIYNKKCINEIIFYGSFDNEALTGILGIKSNGKHISLFFIKPEYHRHGLGKKLFHYASTLHPSIETTVNSSTYAIPFYRSLGFAVVGEKQNYHGLCSTPMRRYHAVFVQKNKYTLRTWQTEDAHSLVQELNNKKIWDNCRNVFPHPYRLEHAETFIDLIQKKEGIHDFCIEVNGKAVGNIGFTPGTDVECFNAEVGYVIGEKYWNQGIVTDALQEAIYHYFTYTNTIRIFALVFEHNLPSMRVLEKAGFNKVGIMTKSIFKNGHFTNAHLFELLKNVLEHHHHHH,not soluble
6,MGSDKIHHHHHHMIRPSLAHTIISEVRKLLDEDLIVVDPSGTIIASTDKERMGSFHEGALISYNERRRLIITQDDESKLTGVKAGINLPIFFQDQVVGVIGITGDPSKVSAYGELLRKMTELLIKEKYYAEQLEWHARTLEAFVFDWVQQKEWTRSFINQAKMLHIDLTVSRQVIIGYYGQHNRERIQREWWIDVSQTFTRQKDDLLVRWGNDRFVMLLANKAEGKERAVHSIQQIQKYIQNKYRHSLSFGVGQSVCPQELYRSFEQAERALAVAVRTQSIVFEEDLRLDMCLQDVKKQTRVDFVQRTLEPIMKDEDLLETLKTFIARNQSFKETAETLHIHINTLHYRLKKMEDKTGLNPRDFHDLTTLYLGLLFLEDNLKN,not soluble
7,MASATTSSKNGKPLVVVYGDYKCPYCKELDEKVMPKLRKNYIDNHKVEYQFVNLAFLGKDSIVGSRASHAVLMYAPKSFLDFQKQLFAAQQDENKEWLTKELLDKHIKQLHLDKETENKIIKDYKTKDSKSWKAAEKDKKIAKDNHIKTVPTAFINGEKVEDPYDYESYEKLLKDKIKLEHHHHHH,soluble
8,MPENLQLVIITGMSGAGKTVAVQSFEDMGYFCIDNLPPSLIPKFWELIKESGKVTKIALVIDLRSRTFFREIQDMLVELENTNFIDTTILFLDATDEELVSRYKETRRAHPMAMDGLVTEGIRKERAMLEEIKADAQLVIDTTDLSPRQLRERLNKELATRETHEFRVEMVSFGFKYGLPIDADIVMDVRFLPNPHYIDELRPLTGMDQPVYDYVMGFPETDEFYTKFIDLLRTVLPGYKKEGKSSVTIAIGCTGGQHRSVALTERVGAELKEEDYHVNITHRDRLKRKETVNRS,not soluble
9,MRSLPIFPDLRAFLDWCARKGDLSRIAEPVSLRHETTAVASKILRGGGPVLRFESLRDTSATMPLVANLFGTRERVAAGLGLGLEQIPELGAFLAALRAPAPVAGMRDALSRWPQLQAALNTRAKIVRSAEAQEVVHEGAAVDLGMIPVPTCWPGDAGPLVTWPVVLTRPHGTSAEETLHYNAGVYRAQVIGRDRLIMRWLAHRGGAGHCRSWMRAGEPMPVALALGCDPALLLAAALPLPEQVSELTFSGVLRGARTPLVAGRTVPLMVPATAEIVVEGWVHPGDMAPEGPFGDHTGYYNSVEDFPVLRVSAITHRKDPLYLTTHTGRPPDEPSVIGEVFNDLAMPVFRQQIPEVKDLYLPPAACSYRIAIVSIDKRYPGQARRVMMALWGMLAQFSYTKMVIVVDEDINPRDWDDVAWAMATRMDPSRDVVLLEKTPMDYLDFASPEPGLAGKIGIDATNKIGPETHREWGEVMTQSPEAEAFADRLIAKLRIGALEHHHHHH,not soluble
10,MSVHPAVQSLCEQPIDTIGLTAVSAVASALGDVSTATDLIQRPEQEKALHDLLKKCMSILNNSGKNSALRLACLECLYVLSQPPIPAFRTGLLCNTLNSVNSSVEEMLARTGPSEAESSSSAREMFTVLVFRFTNYDTKVARLLLQHMCDGDVGTMMQTLLRVMVQHCETCEWPLLQAALQSLYELTVPTTYYATGKDGAAEPSFDSAATATGSSLQSFTVESFQDRIAVLLTEMRNHRLLEKLLASLRLSWHESTHNRSPPSLAQGCAESVALGALGCPDVAHTVTSASAEQQMELLNWLSAFTLLCRALDNMVEFCRDAKLAREVRARLLSDPSCHDWLASAAVPAVIAAIQVWMSDDGASATPAAISDGSAGPFATAKVKLSLLTAAVTLLRLLRFALYKPAMGFTAALLSSMGCLAAQVQRGEPHLRLQYGGMQVMLLTVECLVNMNAVAVTSPVNLSESYRGLLRTIAADKTRCTLSNCSSDVSSDHGAVAERQPDALMPVAEWFILCVREEESPFCDIDSGNASVALLHECFASEEARLQDAADRVADLAALESQLAMMQNFLLLMTLTELLSGLPDGGLERLTQPGPRRRNSATDAEQKPPNNSDSSSRRCKLSKKKVSHHPAAYVCDLTGKLMREPVVLKGGHRFEFDALQNVILQVGHVDPISGESIDEDVEVNIPLQQEIAAYRVKRASEKGGS,not soluble
11,TVGCVAVDSHGNLASATSTGGLVNKMVGRIGDTPLIGAGTYANELCAVSATGKGEEIIRATVARDVAALMEFKGLSLKEAADFVIHERTPKGTVGLIAVSAAGEIAMPFNTTGMFRACATEDGYSEIAIWPTT,soluble
12,MYNGIGLQTARGSGTNGYVQSNLSHLMQARRKIEYNGEDDLRKMEAELNRKPNEEIMDHNRKRQIEVKCTEFEMLLEDKGLDDEDIERKVGEYRKNLLKQLESGELNVDEELSTKESHARRRAAANNRDKMRNALGLGEDYVPGSSMAKMNKSDVVGAAMESELPQKDDKEKLLETLRLHRKSKKKQESSSSSSSSSSSSESSSEDEKHRKDRKKKEKKQKLKEMEKRREKLRQKERELLAVSDKVKKEEPAESSDEEDSRKDQRKPREDRRRSVERQDQREDRRDRRRSPEDPRERRRSPEDRTVRRRSPERRRQQRSPSVERRKSPQRRDERRRRHDSSENERRSTATASKKSRMDELEVKQEPPSDSEDYIAKTNLAPIRVEKSAEKVEKSRKSSSESSSGSSDSDSSSDSSSSSDSSSDSE,not soluble
13,GAMGSDFLLGNPFSSPVGQRIEKATDGSLQSEDWALNMEICDIINETEEGPKDALRAVKKRIVGNKNFHEVMLALTVLETCVKNCGHRFHVLVASQDFVESVLVRTILPKNNPPTIVHDKVLNLIQSWADAFRSSPDLTGVVTIYEDLRRKGLEFPM,soluble
14,MGSDKIHHHHHHMIKGIGTNVDTRRVNGSIKRLVSELEFFKSIGFDYVEIPAAGLDVIARGRIIRKRLERVKELLSNYNFRYTVHAPDVINLKIKTNPWHYRVMEATIEFAGEINAEVVVYHYGEVDHSIDVPERVQRKAEIVALRELADLAKEKGVVIGVENVGHPVSEVLKLVRAVNHPNVKLVIDVGHLFIVSNYTGIDFYDELKKGLPYAVELHLSDNFGESPQTYQKIPDVEAFRFVYGIGDLHLPIGEGDIPYNKVFRIIRESGFDGIVILEINSMDRFADEYADSLNLLRKRLILAADNNKTKKRRKVK,not soluble
15,MAHHHHHHMESQKERGNAAYREKRYRDAINAYTAAIELDLTNVRMVATLRANQAAAKMELKEYSSALLDCEFAIQNGVNSAKLYARRARIHEALNNYDDALRDIQKASEMDGSYQREFQRTKASSKKAMRKDYYKILDLPPNESDDAQIKRAYKKACLRWHPDKWANAGPEEKTHAEKMFKDVGEAFSILSDAKKKRMYDNGMIDNAVEGAGESGFSGFPGQDEALMEMMNRMFFTGGGMSGGFGFNGFPQGRRQQYQQSYTFQFF,not soluble
16,MGSDKIHHHHHHMGKIISKFVCHECGYETPKWLGKCPGCSAWNSLLEESISNKPLRRTAERVAAIPLNQLSAEDSPRFSSGLSEFDRVLGGGIVPGSLILLGGDPGIGKSTLLLQVAGLIAAAGKRILYLSGEESLQQIRLRASRLGINNDTIFLLNEQDIDLLHEYINDLDPDLIIIDSIQTVYSSKLSSIPGSVSQLRESTAAVMQIAKKMDKAVFLVGHVTKDGSLAGPKVLEHIVDVVVYFEGEKNFSFRLLRAAKNRFGATDEIALLEMSGQGLVEVPDPSYVFLSPGRDISSGTAIVASMEGSRPLLIEIQALVSSLGAGYPRRMVSGIDQNRLSLIIAVLEKRRGYTLSACDVYLKVSGGVFLKDPSVDLGIAAAVLSSYLEKPLAMDTVFIGEISLSGQIRPVSFLDLRLREIDRMGYKRVIVPTSPGRLAKSSHNMEILEVKSLDHFIDIVLEG,not soluble
17,MKPNLLPMNLQMFAEEDGGTNFTFDDFKAFVESNEEAQKFVQSQSQSAADKQLEAWKQNNLEKIKETTIKEYEESKKNKTPEQIKLEELQAEFEAEKALRVTSDNKAFVAEKIAGLDWDGDLKDSISQFMLNNLVSSDTEFTKKAVEGFTELLEAINDKHAEAIKNVEMTKAFGNKSQQTNMGTGNQTKSFENPEVALGQKLQAFID,not soluble
18,CISMSKIAVVINPIAGGGRGKKVWKVLKPGLHALFEQTVYRISNRVNDLEAITDGLLAENPDSLLIIGGDGTLNHVLNGLIEKDKLKNPQTKIAFFNAGCGGDFTRQFPQQKMTEFLDRLSHNQFIKCDIGKITLAN,not soluble
19,MSLTRKKEDPGHSGRADRAARLSKASTHHAQHRQQPQRTRHERPRHAGHVAGKLYQLEVSEALISSVTDAVLDNVHAWQSRPLAAQRAENQRLIPD,soluble
20,MGSDKIHHHHHHMRRGELNERRDAIIRLLCAQDELSAQDLAARLNVSVQTIRTDLRELDEAALVQRRHGRVRLRQPSENIGYAPRMSVARSEKQQIAMAVKPMIEDGSRVALGTGTTVEACARQLAASHRDLFVATNNIHAVIALQGASGVSVSLAGGAVRLRDLDFVGAASRAFFADYMVDIAIFSCGGLSLSGDVLDYNTDEIAAREAISTCATRRVLVVDREKFGRALPCRKHMIWDYDVVVTGADFPREIMRKCQEAGCEVLRVATDERPLRA,not soluble
21,MGPHFTLLLAALANCLCPGRPCIKCDQFVTDALKTFENTYLNDHLPHDIHKNVMRMVNHEVSSFGVVTSAEDSYLGAVDENTLEQATWSFLKDLKRITDSDLKGELFIKELLWMLRHQKDIFNNLARQFQKEVLCPNKCGVMSQTLIWCLKCEKQLHICRK,not soluble
22,MQGVPSNEPMLGQLTDNGRAAEAGLKEGDYIQSINGEKMRSWTDIVSAVKENPEKEMDVAVKRDNKTLHISVTPEAVKDENKKTIGRFGSYAPTEKGVLSAVAYGATSTVDVTKAILTNLSKLVTGQFKLDMLSGPVGIYDMTDQVAKTGI,not soluble
